According to patent US20110177998A1 (COMPUGEN, published 2011):
Blank lines part the entries; values can stand above or below the binder they belong to. Positions of bridges follow the written chain, without caps; N, C: chain ends. Chains are numbered I, II in the order given. No end group written: not given here.

Key:
LGR7 (RXFP1) = biological target: T1, LGR7 (RXFP1) (human, UniProt Q9HBX9 1-757); assay: cell-based or functional assay
T1 sequence (looked up): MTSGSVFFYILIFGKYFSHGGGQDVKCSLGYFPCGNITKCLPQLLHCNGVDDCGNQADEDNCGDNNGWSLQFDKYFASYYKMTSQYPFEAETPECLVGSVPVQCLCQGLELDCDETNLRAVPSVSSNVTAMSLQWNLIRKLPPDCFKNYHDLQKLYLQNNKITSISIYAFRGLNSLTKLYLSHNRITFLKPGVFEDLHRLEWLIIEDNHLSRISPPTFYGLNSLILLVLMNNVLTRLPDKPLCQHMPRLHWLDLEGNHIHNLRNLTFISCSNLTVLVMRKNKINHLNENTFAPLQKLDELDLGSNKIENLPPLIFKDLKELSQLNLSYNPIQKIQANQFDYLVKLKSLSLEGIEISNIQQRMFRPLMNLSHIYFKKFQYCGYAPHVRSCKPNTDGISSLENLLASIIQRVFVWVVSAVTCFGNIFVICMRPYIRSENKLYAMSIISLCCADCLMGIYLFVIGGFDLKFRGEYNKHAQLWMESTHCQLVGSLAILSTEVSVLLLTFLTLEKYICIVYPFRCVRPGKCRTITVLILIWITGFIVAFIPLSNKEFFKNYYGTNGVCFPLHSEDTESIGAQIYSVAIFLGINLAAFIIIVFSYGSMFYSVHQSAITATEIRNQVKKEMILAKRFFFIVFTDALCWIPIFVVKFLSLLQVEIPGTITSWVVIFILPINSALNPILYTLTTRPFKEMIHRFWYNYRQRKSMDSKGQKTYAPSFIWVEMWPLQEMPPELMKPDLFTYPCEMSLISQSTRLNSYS

LGR8 (RXFP2) [1] = biological target: T2, LGR8 (RXFP2) (human, UniProt Q8WXD0 1-754); assay: Competition binding against Europium-INSL3 on HEK-293T cells expressing LGR8
T2 construct: whole, on cells; also called RXFP2_HUMAN
T2 sequence (Q8WXD0 whole entry): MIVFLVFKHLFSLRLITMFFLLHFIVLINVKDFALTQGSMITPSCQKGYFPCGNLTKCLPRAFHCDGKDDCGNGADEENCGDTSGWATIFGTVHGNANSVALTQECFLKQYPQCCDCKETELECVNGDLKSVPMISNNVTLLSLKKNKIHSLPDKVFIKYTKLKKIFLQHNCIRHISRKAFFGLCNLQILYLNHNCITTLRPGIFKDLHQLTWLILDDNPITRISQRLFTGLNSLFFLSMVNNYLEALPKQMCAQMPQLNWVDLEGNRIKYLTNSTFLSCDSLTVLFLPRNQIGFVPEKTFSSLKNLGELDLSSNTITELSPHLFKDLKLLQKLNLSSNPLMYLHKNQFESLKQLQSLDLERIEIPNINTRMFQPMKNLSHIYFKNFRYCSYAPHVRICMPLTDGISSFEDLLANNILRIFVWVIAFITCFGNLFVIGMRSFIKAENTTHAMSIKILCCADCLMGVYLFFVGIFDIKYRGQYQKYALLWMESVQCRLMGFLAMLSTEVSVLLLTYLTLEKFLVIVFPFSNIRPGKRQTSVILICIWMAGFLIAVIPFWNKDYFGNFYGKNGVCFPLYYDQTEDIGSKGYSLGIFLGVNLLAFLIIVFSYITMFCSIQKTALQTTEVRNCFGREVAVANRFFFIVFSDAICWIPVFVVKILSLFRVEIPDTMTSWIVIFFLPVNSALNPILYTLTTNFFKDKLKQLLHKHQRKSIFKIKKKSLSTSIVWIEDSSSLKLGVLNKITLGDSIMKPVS

LGR8 (RXFP2) [2] = biological target: T2, LGR8 (RXFP2); assay: cell-based or functional assay

Binder: AYAAFSV-NH2 [Peptide P59-S-Amide (Amide)]
pCRE-beta-gal reporter after 5 uM forskolin, CHO-K1 cells, % of Forskolin activity (LGR8 (RXFP2) [2]): ~2 fold of Forskolin
pCRE-beta-gal reporter after 5 uM forskolin, CHO-K1 cells, % of Forskolin activity (LGR7 (RXFP1)): ~2 fold of Forskolin

B1: H2 Relaxin (ligand)
chain 1: QLYSALANKCCHVGCTKRSLARFC
chain 2: DSWMEEVIKLCGRELVRAQIAICGMSTWS
modifications: disulfide I:10-I:15, I:11-II:11, I:24-II:23; not fully specified (some residues); ends not checked
EC50, cell impedance dose response (ACEA RT-CES), transfected CHO-K1 cells (LGR7 (RXFP1)): ~100 nM

Other lines, results leading:

EC50, cell impedance dose response (ACEA RT-CES), transfected CHO-K1 cells (LGR7 (RXFP1)): ~300 nM
binding result (LGR8 (RXFP2) [1]): binds
Binder: GQKGQVGPPGAAVRRAYAAFSVGRRAYAAFSV (Free acid C-terminus) [Peptide P74C13V (free acid)]

binding result (LGR8 (RXFP2) [1]): binds
B2: Peptide P59C13V-Amide (amide) (peptide)
peptide: GQKGQVGPPGAAVRRAYAAFSV-NH2
notes: Synthetic peptide, the C-terminally amidated form of P59C13V; also called P59-Amide; P59 Amide
